Data from publication PMC7954794 (2021).

B1: S. cerevisiae Abp1 (full length; SH3 domain 535-592 mutated) / Hua2 (parent complex)
chain 1: MALEPIDYTTHSREIDAEYLKIVRGSDPDTTWLIISPNAKKEYEPESTGSSFHDFLQLFDETKVQYGLARVSPPGSDVEKIIIIGWCPDSAPLKTRASFAANFAAVANNLFKGYHVQVTARDEDDLDENELLMKISNAAGARYSIQTSSKQQGKASTPPVKKSFTPSKSPAPVSKKEPVKTPSPAPAAKISSRVNDNNDDDDWNEPELKERDFDQAPLKPNQSSYKPIGKIDLQKVIAEEKAKEDPRLVQKPTAAGSKIDPSSDIANLKNESKLKRDSEFNSFLGTTKPPSMTESSLKNDDDKVIKGFRNEKSPAQLWAERKAKQNSGNAETKAEAPKPEVPEDEPEGEPDVKDLKSKFEGLAASEKEEEEMENKFAPPPKKSEPTIISPKPFSKPQEPVKAEEAEQPKTDYKKIGNPLPGMHIEADNEEEPEENDDDWDDDEDEAAQPPLPSRNVASGAPVQKEEPEQEEIAPSLPSRNSIPAPKQEEAPEQAPEEEIEEEAEEAAPQLPSRSSAAPPPPPRRATPEKKPKENPWATAEYDYDAAEDNELTFVENDKIINIEFVDDDWWLGELEKDGSKGLFPSNYVSLGN
chain 2: MQQTKFGKMYLDHDSVVEYSEDEIVEADRITLGYKKRLSMIENQMRHLLEDFSLDVQQIEPILADLQKYYDAFLQLLQKRNKSLQCKRSTHQPVPSPMNSQTSTNAKVNLSGKLMKFQLNSVQKFDEENILRILQNKIEFEHYFQIDKGKKQKVLLLAVYQCLNGPTRLHKVLNIEGIIHNNSIRTILGKQVSSSKWTVFLYDVKLVLLAHRQDVPNLETSKMIVRYGDLFPCALYFKDHTAY

Variants of: B1
Experiment: DHFR protein-fragment complementation in yeast (Abp1-DHFR F[1,2] x partner-DHFR F[3]), deep mutational scanning, second methotrexate selection vs reference; S. cerevisiae, DHFR-PCA selection in liquid with methotrexate at 30 C, two 72 h selections (the score uses the second); reference = the pre-selection culture

| Variant | screen value |
| --- | --- |
| chain 1 MALEPIDYTTHSREIDAEYLKIVRGSDPDTTWLIISPNAKKEYEPESTGSSFHDFLQLFDETKVQYGLARVSPPGSDVEKIIIIGWCPDSAPLKTRASFAANFAAVANNLFKGYHVQVTARDEDDLDENELLMKISNAAGARYSIQTSSKQQGKASTPPVKKSFTPSKSPAPVSKKEPVKTPSPAPAAKISSRVNDNNDDDDWNEPELKERDFDQAPLKPNQSSYKPIGKIDLQKVIAEEKAKEDPRLVQKPTAAGSKIDPSSDIANLKNESKLKRDSEFNSFLGTTKPPSMTESSLKNDDDKVIKGFRNEKSPAQLWAERKAKQNSGNAETKAEAPKPEVPEDEPEGEPDVKDLKSKFEGLAASEKEEEEMENKFAPPPKKSEPTIISPKPFSKPQEPVKAEEAEQPKTDYKKIGNPLPGMHIEADNEEEPEENDDDWDDDEDEAAQPPLPSRNVASGAPVQKEEPEQEEIAPSLPSRNSIPAPKQEEAPEQAPEEEIEEEAEEAAPQLPSRSSAAPPPPPRRATPEKKPKENPWATAEYDYDAAEDNELTFVESDKIINIEFVDDDWWLGELEKDGSKGLFPSNYVSLGN [chain 1 N556S] | 0.415 DMS score: mean over two replicates of log2(f_test/f_ref + 0.5)/ln 2, minus the synonymous-codon median (not a log2 … |
| chain 1 MALEPIDYTTHSREIDAEYLKIVRGSDPDTTWLIISPNAKKEYEPESTGSSFHDFLQLFDETKVQYGLARVSPPGSDVEKIIIIGWCPDSAPLKTRASFAANFAAVANNLFKGYHVQVTARDEDDLDENELLMKISNAAGARYSIQTSSKQQGKASTPPVKKSFTPSKSPAPVSKKEPVKTPSPAPAAKISSRVNDNNDDDDWNEPELKERDFDQAPLKPNQSSYKPIGKIDLQKVIAEEKAKEDPRLVQKPTAAGSKIDPSSDIANLKNESKLKRDSEFNSFLGTTKPPSMTESSLKNDDDKVIKGFRNEKSPAQLWAERKAKQNSGNAETKAEAPKPEVPEDEPEGEPDVKDLKSKFEGLAASEKEEEEMENKFAPPPKKSEPTIISPKPFSKPQEPVKAEEAEQPKTDYKKIGNPLPGMHIEADNEEEPEENDDDWDDDEDEAAQPPLPSRNVASGAPVQKEEPEQEEIAPSLPSRNSIPAPKQEEAPEQAPEEEIEEEAEEAAPQLPSRSSAAPPPPPRRATPEKKPKENPWATAEYDYDAAEDNELTFVENDKLINIEFVDDDWWLGELEKDGSKGLFPSNYVSLGN [chain 1 I559L] | -0.0963 DMS score: mean over two replicates of log2(f_test/f_ref + 0.5)/ln 2, minus the synonymous-codon median (not a log2 … |
| chain 1 MALEPIDYTTHSREIDAEYLKIVRGSDPDTTWLIISPNAKKEYEPESTGSSFHDFLQLFDETKVQYGLARVSPPGSDVEKIIIIGWCPDSAPLKTRASFAANFAAVANNLFKGYHVQVTARDEDDLDENELLMKISNAAGARYSIQTSSKQQGKASTPPVKKSFTPSKSPAPVSKKEPVKTPSPAPAAKISSRVNDNNDDDDWNEPELKERDFDQAPLKPNQSSYKPIGKIDLQKVIAEEKAKEDPRLVQKPTAAGSKIDPSSDIANLKNESKLKRDSEFNSFLGTTKPPSMTESSLKNDDDKVIKGFRNEKSPAQLWAERKAKQNSGNAETKAEAPKPEVPEDEPEGEPDVKDLKSKFEGLAASEKEEEEMENKFAPPPKKSEPTIISPKPFSKPQEPVKAEEAEQPKTDYKKIGNPLPGMHIEADNEEEPEENDDDWDDDEDEAAQPPLPSRNVASGAPVQKEEPEQEEIAPSLPSRNSIPAPKQEEAPEQAPEEEIEEEAEEAAPQLPSRSSAAPPPPPRRATPEKKPKENPWATAEYDYDAAEDNELTFVENDKIVNIEFVDDDWWLGELEKDGSKGLFPSNYVSLGN [chain 1 I560V] | 0.522 DMS score: mean over two replicates of log2(f_test/f_ref + 0.5)/ln 2, minus the synonymous-codon median (not a log2 … |
| chain 1 MALEPIDYTTHSREIDAEYLKIVRGSDPDTTWLIISPNAKKEYEPESTGSSFHDFLQLFDETKVQYGLARVSPPGSDVEKIIIIGWCPDSAPLKTRASFAANFAAVANNLFKGYHVQVTARDEDDLDENELLMKISNAAGARYSIQTSSKQQGKASTPPVKKSFTPSKSPAPVSKKEPVKTPSPAPAAKISSRVNDNNDDDDWNEPELKERDFDQAPLKPNQSSYKPIGKIDLQKVIAEEKAKEDPRLVQKPTAAGSKIDPSSDIANLKNESKLKRDSEFNSFLGTTKPPSMTESSLKNDDDKVIKGFRNEKSPAQLWAERKAKQNSGNAETKAEAPKPEVPEDEPEGEPDVKDLKSKFEGLAASEKEEEEMENKFAPPPKKSEPTIISPKPFSKPQEPVKAEEAEQPKTDYKKIGNPLPGMHIEADNEEEPEENDDDWDDDEDEAAQPPLPSRNVASGAPVQKEEPEQEEIAPSLPSRNSIPAPKQEEAPEQAPEEEIEEEAEEAAPQLPSRSSAAPPPPPRRATPEKKPKENPWATAEYDYDCAEDNELTFVENDKIINIEFVDDDWWLGELEKDGSKGLFPSNYVSLGN [chain 1 A545C] | -0.621 DMS score: mean over two replicates of log2(f_test/f_ref + 0.5)/ln 2, minus the synonymous-codon median (not a log2 … |
| chain 1 MALEPIDYTTHSREIDAEYLKIVRGSDPDTTWLIISPNAKKEYEPESTGSSFHDFLQLFDETKVQYGLARVSPPGSDVEKIIIIGWCPDSAPLKTRASFAANFAAVANNLFKGYHVQVTARDEDDLDENELLMKISNAAGARYSIQTSSKQQGKASTPPVKKSFTPSKSPAPVSKKEPVKTPSPAPAAKISSRVNDNNDDDDWNEPELKERDFDQAPLKPNQSSYKPIGKIDLQKVIAEEKAKEDPRLVQKPTAAGSKIDPSSDIANLKNESKLKRDSEFNSFLGTTKPPSMTESSLKNDDDKVIKGFRNEKSPAQLWAERKAKQNSGNAETKAEAPKPEVPEDEPEGEPDVKDLKSKFEGLAASEKEEEEMENKFAPPPKKSEPTIISPKPFSKPQEPVKAEEAEQPKTDYKKIGNPLPGMHIEADNEEEPEENDDDWDDDEDEAAQPPLPSRNVASGAPVQKEEPEQEEIAPSLPSRNSIPAPKQEEAPEQAPEEEIEEEAEEAAPQLPSRSSAAPPPPPRRATPEKKPKENPWATAEYDYDAAEDNELTFVENDKIINIEFVDDDWWLGELEKDGSKGIFPSNYVSLGN [chain 1 L582I] | -1.44 DMS score: mean over two replicates of log2(f_test/f_ref + 0.5)/ln 2, minus the synonymous-codon median (not a log2 … |
